Laboratory results reported in article PMC13315578.

Experiments:
Details in all cases: protein: recombinant; tags: N-terminal 6xHis-TEV site; tRNA fold, annealed
[1] = biological target: T1, Min Elp3 Y304A (Methanocaldococcus infernus, UniProt D5VRB9 1-534, Y304A); assay: EMSA; EMSA: 250 nM tRNA, 0-20 uM Elp3, 100 mM HEPES pH 7.5, 750 mM NaCl, 25 mM DTT, 20 °C 30 min; 5% TBE gel at 4 °C
T1 sequence: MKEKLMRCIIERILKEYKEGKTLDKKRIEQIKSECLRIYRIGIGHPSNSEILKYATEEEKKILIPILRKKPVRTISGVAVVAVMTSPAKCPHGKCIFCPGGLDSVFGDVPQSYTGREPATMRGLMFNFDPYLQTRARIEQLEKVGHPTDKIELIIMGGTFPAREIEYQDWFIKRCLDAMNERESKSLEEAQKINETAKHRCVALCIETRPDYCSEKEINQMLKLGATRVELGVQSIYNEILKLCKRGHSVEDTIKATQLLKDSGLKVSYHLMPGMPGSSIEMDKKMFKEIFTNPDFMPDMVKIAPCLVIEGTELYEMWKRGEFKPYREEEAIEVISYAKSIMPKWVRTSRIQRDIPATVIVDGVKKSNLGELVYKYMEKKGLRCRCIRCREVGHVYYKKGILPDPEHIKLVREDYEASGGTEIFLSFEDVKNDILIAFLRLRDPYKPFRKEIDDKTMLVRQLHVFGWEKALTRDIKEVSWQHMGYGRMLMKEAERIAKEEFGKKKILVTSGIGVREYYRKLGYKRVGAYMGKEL

[2] = biological target: T2, Min Elp3 K302A (Methanocaldococcus infernus, UniProt D5VRB9 1-534, K302A); assay: EMSA; similar affinity to WT; EMSA: 250 nM tRNA, 0-20 uM Elp3, 100 mM HEPES pH 7.5, 750 mM NaCl, 25 mM DTT, 20 °C 30 min; 5% TBE gel at 4 °C
T2 sequence: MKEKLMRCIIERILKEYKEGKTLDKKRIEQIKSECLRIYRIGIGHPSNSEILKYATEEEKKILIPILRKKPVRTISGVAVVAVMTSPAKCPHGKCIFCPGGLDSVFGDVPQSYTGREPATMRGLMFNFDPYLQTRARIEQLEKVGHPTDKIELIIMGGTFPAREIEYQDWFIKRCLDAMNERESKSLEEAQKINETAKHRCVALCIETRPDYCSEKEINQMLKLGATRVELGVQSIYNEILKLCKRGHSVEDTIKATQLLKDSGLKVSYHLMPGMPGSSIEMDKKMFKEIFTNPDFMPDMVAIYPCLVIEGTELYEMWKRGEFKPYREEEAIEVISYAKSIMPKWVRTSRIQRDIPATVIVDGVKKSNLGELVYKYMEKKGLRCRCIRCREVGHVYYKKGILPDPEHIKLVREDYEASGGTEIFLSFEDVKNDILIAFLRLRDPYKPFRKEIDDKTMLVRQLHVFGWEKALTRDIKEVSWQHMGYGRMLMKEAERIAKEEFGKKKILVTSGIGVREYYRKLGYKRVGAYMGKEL

[3] = biological target: T3, Min Elp3 E207A (Methanocaldococcus infernus, UniProt D5VRB9 1-534, E207A); assay: as above
T3 sequence: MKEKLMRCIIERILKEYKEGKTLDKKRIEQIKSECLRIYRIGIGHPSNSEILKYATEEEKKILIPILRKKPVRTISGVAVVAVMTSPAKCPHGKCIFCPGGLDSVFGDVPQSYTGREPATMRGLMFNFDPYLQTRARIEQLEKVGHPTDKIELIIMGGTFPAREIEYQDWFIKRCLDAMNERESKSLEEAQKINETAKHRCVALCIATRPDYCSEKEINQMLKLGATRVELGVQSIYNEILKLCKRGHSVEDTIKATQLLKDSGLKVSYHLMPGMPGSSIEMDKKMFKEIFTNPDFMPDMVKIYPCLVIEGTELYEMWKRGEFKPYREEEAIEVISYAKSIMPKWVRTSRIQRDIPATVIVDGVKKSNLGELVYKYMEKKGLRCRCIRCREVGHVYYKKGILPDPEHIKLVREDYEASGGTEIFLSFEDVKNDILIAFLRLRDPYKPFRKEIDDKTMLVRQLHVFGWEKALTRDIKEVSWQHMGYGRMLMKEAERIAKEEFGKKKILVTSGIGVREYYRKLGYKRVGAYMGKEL

[4] = biological target: T4, Min Elp3 I154W (Methanocaldococcus infernus, UniProt D5VRB9 1-534, I154W); assay: EMSA; comparable affinity to WT; EMSA: 250 nM tRNA, 0-20 uM Elp3, 100 mM HEPES pH 7.5, 750 mM NaCl, 25 mM DTT, 20 °C 30 min; 5% TBE gel at 4 °C
T4 sequence: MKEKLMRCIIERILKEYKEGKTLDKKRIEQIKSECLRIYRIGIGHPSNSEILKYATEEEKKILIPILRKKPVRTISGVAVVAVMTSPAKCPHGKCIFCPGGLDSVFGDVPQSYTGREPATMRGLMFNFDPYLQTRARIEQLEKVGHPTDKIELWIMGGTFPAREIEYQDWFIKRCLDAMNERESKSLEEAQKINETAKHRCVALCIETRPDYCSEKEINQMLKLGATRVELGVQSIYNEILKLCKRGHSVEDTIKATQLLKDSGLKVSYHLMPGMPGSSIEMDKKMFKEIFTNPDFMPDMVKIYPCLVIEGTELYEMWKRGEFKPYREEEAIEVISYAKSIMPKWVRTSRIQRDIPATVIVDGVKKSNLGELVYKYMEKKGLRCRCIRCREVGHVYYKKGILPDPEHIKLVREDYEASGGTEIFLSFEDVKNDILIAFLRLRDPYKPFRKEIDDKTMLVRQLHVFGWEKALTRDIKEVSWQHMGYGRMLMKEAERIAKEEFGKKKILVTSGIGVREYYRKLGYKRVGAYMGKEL

[5] = biological target: T5, Min Elp3 M156W (Methanocaldococcus infernus, UniProt D5VRB9 1-534, M156W); assay: as above
T5 sequence: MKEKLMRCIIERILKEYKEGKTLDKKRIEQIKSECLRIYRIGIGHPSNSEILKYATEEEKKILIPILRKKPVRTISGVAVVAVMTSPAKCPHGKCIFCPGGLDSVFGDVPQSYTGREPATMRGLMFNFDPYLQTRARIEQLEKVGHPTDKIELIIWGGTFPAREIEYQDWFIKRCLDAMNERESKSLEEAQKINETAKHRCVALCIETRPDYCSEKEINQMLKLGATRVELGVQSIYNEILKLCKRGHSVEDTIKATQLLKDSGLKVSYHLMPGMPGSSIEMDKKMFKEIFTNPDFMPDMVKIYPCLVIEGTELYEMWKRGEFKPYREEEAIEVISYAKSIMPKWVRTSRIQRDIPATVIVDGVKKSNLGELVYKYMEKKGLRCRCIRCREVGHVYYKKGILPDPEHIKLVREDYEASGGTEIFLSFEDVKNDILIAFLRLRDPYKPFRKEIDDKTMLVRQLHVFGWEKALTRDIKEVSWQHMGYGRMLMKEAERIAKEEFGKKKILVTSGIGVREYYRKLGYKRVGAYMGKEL

B1: tRNA ArgUCU (structured_RNA)
RNA: GGACCCGUAGCCUAGCCUGGAUAGGGCACCGGCCUUCUAAGCCGGGGGUCGGGGGUUCAAAUCCCCCCGGGUCCGCCA
**Q.** How did the binding signal [1] turn out when B1 was run?
**A.** The binding signal was roughly 1.5 fold KD increase vs WT.

**Q.** Does B1 bind [2]?
**A.** Result: binds

**Q.** Does B1 bind [3]?
**A.** Result: binds

**Q.** Does B1 bind [4]?
**A.** Result: binds

**Q.** Does B1 bind [5]?
**A.** Result: binds
